Assay results: patent publication US6670147

Key:
[1] = molecular target: nonmutated (wild-type) FX (UniProt P00742); test: cell-based or functional assay
[2] = molecular target: mutated factor X (human FX in which amino acid 194 has been mutated from Arg to Tyr) (human) (UniProt P00742); test: cell-based or functional assay

coagulation time (recalcification time in FX-deficient plasma) [2] | Substance | coagulation time (recalcification time in FX-deficient plasma) [1]
 | Russel's viper venom (RVV) | 50 s
50 s | prostate-specific antigen (PSA) (from UniProt P07288 25-261) (enzyme) | 
